According to patent US20260116966A1 (KEYMED BIOSCIENCES CHENGDU, published 2026):

B1: 2F1 × CD3 H4K7 GPRC5D×CD3 κλ bispecific antibody variant (bispecific antibody, human IgG4 S228P, kappa, lambda)
heavy 1: QVQLVQSGAEVKKPGSSVKVSCKASGYSFTGYTMNWVREAPGQGLEWMGLINPYNGGTRYNQKFQGRVTITADESTSTAYMELSSLRSEDTAVYYCARWALRYGMDYWGQGTLVTVSSASTKGPSVFPLAPCSRSTSESTAALGCLVKDYFPEPVTVSWNSGALTSGVHTFPAVLQSSGLYSLSSVVTVPSSSLGTKTYTCNVDHKPSNTKVDKRVESKYGPPCPPCPAPEFEGGPSVFLFPPKPKDTLMISRTPEVTCVVVDVSQEDPEVQFNWYVDGVEVHNAKTKPREEQFNSTYRVVSVLTVLHQDWLNGKEYKCKVSNKGLASSIEKTISKAKGQPREPQVCTLPPSQEEMTKNQVSLSCAVKGFYPSDIAVEWESNGQPENNYKTTPPVLDSDGSFFLVSKLTVDKSRWQEGNVFSCSVMHEALHNHYTQKSLSLSLGK
light 1: DIQMTQSPSSLSASVGDRVTITCQASQNVGTNVAWYQKKPGQAPKALIYSASYRNSGVPSRFSGSGSGTDFTFTISSLQPEDIATYFCQQYNSYLLTFGGGTKVEIKRTVAAPSVFIFPPSDEQLKSGTASVVCLLNNFYPREAKVQWKVDNALQSGNSQESVTEQDSKDSTYSLSSTLTLSKADYEKHKVYACEVTHQGLSSPVTKSFNRGEC
heavy 2: EVQLVESGGGLVQPGGSLRLSCAASGFTFNTYAMNWVRKAPGKGLEWVGRIRSKYNNYATYYADSVKDRFTISRDDSKNSLYLQMNSLKTEDTAVYYCVRHGNFGNSYVSWFAYWGQGTLVTVSSASTKGPSVFPLAPCSRSTSESTAALGCLVKDYFPEPVTVSWNSGALTSGVHTFPAVLQSSGLYSLSSVVTVPSSSLGTKTYTCNVDHKPSNTKVDKRVESKYGPPCPPCPAPEFEGGPSVFLFPPKPKDTLMISRTPEVTCVVVDVSQEDPEVQFNWYVDGVEVHNAKTKPREEQFNSTYRVVSVLTVLHQDWLNGKEYKCKVSNKGLASSIEKTISKAKGQPREPQVYTLPPCQEEMTKNQVSLWCLVKGFYPSDIAVEWESNGQPENNYKTTPPVLDSDGSFFLYSKLTVDKSRWQEGNVFSCSVMHEALHNHYTQKSLSLSLGK
light 2: QAVVTQEPSLTVSPGGTVTLTCRSSTGAVTTSNYANWVQEKPGQAPRGLIGGTNKRAPWTPARFSGSLLGGKAALTITGAQAEDEAEYYCVLWYSNLWVFGGGTKLTVLGQPKAAPSVTLFPPSSEELQANKATLVCLISDFYPGAVTVAWKADSSPVKAGVETTTPSKQSNNKYAASSYLSLTPEQWKSHRSYSCQVTHEGSTVEKTVAPTECS
notes: also called h2F1 H4K7
B2: GPRC5D × BCMA × CD3 triTCE-v3 trispecific antibody (other)
light 1: B1 light 2
heavy 1: DIQMTQSPSSLSASVGDRVTITCQASQNVGTNVAWYQQKPGQAPKALIYSASYLNSGVPSRFSGSGSGTDFTFTISSLQPEDIATYFCQQYNSYLLTFGCGTKVEIKGGGGSGGGGSGGGGSQVQLVQSGAEVKKPGSSVKVSCKASGYSFTGYTMNWVRQAPGQCLEWMGLINPYNGGTRYNQKFQGRVTITADESTSTAYMELSSLRSEDTAVYYCARWALRYGMDYWGQGTLVTVSSGGGGSGGGGSGGGGSEVQLVESGGGLVQPGGSLRLSCAASGFTFNTYAMNWVRKAPGKGLEWVGRIRSKYNNYATYYADSVKDRFTISRDDSKNSLYLQMNSLKTEDTAVYYCVRHGNFGNSYVSWFAYWGQGTLVTVSSASTKGPSVFPLAPCSRSTSESTAALGCLVKDYFPEPVTVSWNSGALTSGVHTFPAVLQSSGLYSLSSVVTVPSSSLGTKTYTCNVDHKPSNTKVDKRVESKYGPPCPPCPAPEFEGGPSVFLFPPKPKDTLMISRTPEVTCVVVDVSQEDPEVQFNWYVDGVEVHNAKTKPREEQFNSTYRVVSVLTVLHQDWLNGKEYKCKVSNKGLASSIEKTISKAKGQPREPQVYTLPPCQEEMTKNQVSLWCLVKGFYPSDIAVEWESNGQPENNYKTTPPVLDSDGSFFLYSKLTVDKSRWQEGNVFSCSVMHEALHNHYTQKSLSLSLGK
light 2: DIVLTQSPASLAVSPGQRATITCRASKSVSTSGYSYMHWYQKKPGQPPKLLIYLASNLESGVPARFSGSGSGTDFTLTINPVEAEDTANYYCQHSRELPWTFGQGTKVEIKRTVAAPSVFIFPPSDEQLKSGTASVVCLLNNFYPREAKVQWKVDNALQSGNSQESVTEQDSKDSTYSLSSTLTLSKADYEKHKVYACEVTHQGLSSPVTKSFNRGEC
heavy 2: QVQLVQSGSELKKPGASVKVSCKASGYIFTNFGMNWVREAPGQGLEWMGWINTYTGEQIYADGFTGRFVFSLDTSVSTAYLQISSLKAEDTAVYFCARGEIYYGYDVGFVYWGQGTLVTVSS
notes: Trispecific antibody: GPRC5D scFv fused to the N-terminus of the heavy chain of the CD3 arm
B3: GPRC5D × BCMA × CD3 triTCE-v1 trispecific antibody (other)
light 1: B2 light 2
heavy 1: DIQMTQSPSSLSASVGDRVTITCQASQNVGTNVAWYQQKPGQAPKALIYSASYLNSGVPSRFSGSGSGTDFTFTISSLQPEDIATYFCQQYNSYLLTFGCGTKVEIKGGGGSGGGGSGGGGSQVQLVQSGAEVKKPGSSVKVSCKASGYSFTGYTMNWVRQAPGQCLEWMGLINPYNGGTRYNQKFQGRVTITADESTSTAYMELSSLRSEDTAVYYCARWALRYGMDYWGQGTLVTVSSGGGGSGGGGSGGGGSQVQLVQSGSELKKPGASVKVSCKASGYIFTNFGMNWVREAPGQGLEWMGWINTYTGEQIYADGFTGRFVFSLDTSVSTAYLQISSLKAEDTAVYFCARGEIYYGYDVGFVYWGQGTLVTVSSASTKGPSVFPLAPCSRSTSESTAALGCLVKDYFPEPVTVSWNSGALTSGVHTFPAVLQSSGLYSLSSVVTVPSSSLGTKTYTCNVDHKPSNTKVDKRVESKYGPPCPPCPAPEFEGGPSVFLFPPKPKDTLMISRTPEVTCVVVDVSQEDPEVQFNWYVDGVEVHNAKTKPREEQFNSTYRVVSVLTVLHQDWLNGKEYKCKVSNKGLASSIEKTISKAKGQPREPQVCTLPPSQEEMTKNQVSLSCAVKGFYPSDIAVEWESNGQPENNYKTTPPVLDSDGSFFLVSKLTVDKSRWQEGNVFSCSVMHEALHNHYTQKSLSLSLGK
light 2: B1 light 2
heavy 2: B1 heavy 2
notes: Trispecific antibody: GPRC5D scFv fused to the N-terminus of the heavy chain of the BCMA arm
B4: GPRC5D × BCMA × CD3 triTCE-v2 trispecific antibody (other)
light 1: B2 light 2
heavy 1: QVQLVQSGAEVKKPGSSVKVSCKASGYSFTGYTMNWVRQAPGQCLEWMGLINPYNGGTRYNQKFQGRVTITADESTSTAYMELSSLRSEDTAVYYCARWALRYGMDYWGQGTLVTVSSGGGGSGGGGSGGGGSDIQMTQSPSSLSASVGDRVTITCQASQNVGTNVAWYQQKPGQAPKALIYSASYLNSGVPSRFSGSGSGTDFTFTISSLQPEDIATYFCQQYNSYLLTFGCGTKVEIKGGGGSGGGGSGGGGSQVQLVQSGSELKKPGASVKVSCKASGYIFTNFGMNWVREAPGQGLEWMGWINTYTGEQIYADGFTGRFVFSLDTSVSTAYLQISSLKAEDTAVYFCARGEIYYGYDVGFVYWGQGTLVTVSSASTKGPSVFPLAPCSRSTSESTAALGCLVKDYFPEPVTVSWNSGALTSGVHTFPAVLQSSGLYSLSSVVTVPSSSLGTKTYTCNVDHKPSNTKVDKRVESKYGPPCPPCPAPEFEGGPSVFLFPPKPKDTLMISRTPEVTCVVVDVSQEDPEVQFNWYVDGVEVHNAKTKPREEQFNSTYRVVSVLTVLHQDWLNGKEYKCKVSNKGLASSIEKTISKAKGQPREPQVCTLPPSQEEMTKNQVSLSCAVKGFYPSDIAVEWESNGQPENNYKTTPPVLDSDGSFFLVSKLTVDKSRWQEGNVFSCSVMHEALHNHYTQKSLSLSLGK
light 2: B1 light 2
heavy 2: B1 heavy 2
notes: as for B3
B5: GPRC5D × BCMA × CD3 triTCE-v4 trispecific antibody (other)
light 1: B1 light 2
heavy 1: QVQLVQSGAEVKKPGSSVKVSCKASGYSFTGYTMNWVRQAPGQCLEWMGLINPYNGGTRYNQKFQGRVTITADESTSTAYMELSSLRSEDTAVYYCARWALRYGMDYWGQGTLVTVSSGGGGSGGGGSGGGGSDIQMTQSPSSLSASVGDRVTITCQASQNVGTNVAWYQQKPGQAPKALIYSASYLNSGVPSRFSGSGSGTDFTFTISSLQPEDIATYFCQQYNSYLLTFGCGTKVEIKGGGGSGGGGSGGGGSEVQLVESGGGLVQPGGSLRLSCAASGFTFNTYAMNWVRKAPGKGLEWVGRIRSKYNNYATYYADSVKDRFTISRDDSKNSLYLQMNSLKTEDTAVYYCVRHGNFGNSYVSWFAYWGQGTLVTVSSASTKGPSVFPLAPCSRSTSESTAALGCLVKDYFPEPVTVSWNSGALTSGVHTFPAVLQSSGLYSLSSVVTVPSSSLGTKTYTCNVDHKPSNTKVDKRVESKYGPPCPPCPAPEFEGGPSVFLFPPKPKDTLMISRTPEVTCVVVDVSQEDPEVQFNWYVDGVEVHNAKTKPREEQFNSTYRVVSVLTVLHQDWLNGKEYKCKVSNKGLASSIEKTISKAKGQPREPQVYTLPPCQEEMTKNQVSLWCLVKGFYPSDIAVEWESNGQPENNYKTTPPVLDSDGSFFLYSKLTVDKSRWQEGNVFSCSVMHEALHNHYTQKSLSLSLGK
light 2: B2 light 2
heavy 2: B2 heavy 2
notes: as for B2

Key:
[1] = biological target: T1, Cynomolgus GPRC5D (Cynomolgus, UniProt Q9NZD1 1-343 (human entry)); assay: flow cytometry, HEK293-cyGPRC5D cells
T1 construct: Full length, on stably transfected cells (HEK293-cyGPRC5D, CHO-cyGPRC5D); also called cyGPRC5D
T1 chain: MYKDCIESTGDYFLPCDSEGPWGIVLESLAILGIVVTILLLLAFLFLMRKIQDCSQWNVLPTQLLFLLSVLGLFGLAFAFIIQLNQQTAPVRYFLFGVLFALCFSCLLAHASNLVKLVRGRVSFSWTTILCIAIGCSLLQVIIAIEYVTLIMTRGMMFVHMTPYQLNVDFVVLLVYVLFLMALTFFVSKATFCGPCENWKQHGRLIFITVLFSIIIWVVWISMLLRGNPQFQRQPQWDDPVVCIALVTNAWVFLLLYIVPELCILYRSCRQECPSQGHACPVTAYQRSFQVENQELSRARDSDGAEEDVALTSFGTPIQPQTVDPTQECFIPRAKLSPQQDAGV
Description: (§1) HEK293-hGPRC5D and HEK293-cyGPRC5D stably transfected cells in logarithmic growth phase were respectively adjusted to a cell density of 5×10⁵ cells/mL. Then, 100 μl/well of the cell suspension was added to a 96-well U-shaped plate, and centrifuged at 300 g for 5 min. The supernatant was discarded. […] The secondary antibody 50 μL/well of Alexa Fluro647 labeled goat anti-human IgG Fe (1:300 dilution) was added, and incubated on ice for 20 min. After washing once, 50 μL/well of PI solution (1:300) was added, incubated for 5 min, and detected by flow cytometry.

[2] = biological target: T2, CD3 receptor on the surface of Jurkat cells (human, UniProt P07766 23-207); assay: cell-based or functional assay
[3] = biological target: T3, human GPRC5D (human, UniProt Q9NZD1 1-345); assay: cell-based or functional assay
[4] = biological target: T3, human GPRC5D; assay: flow cytometry, MM.1R cells
Description: The cell suspension of MM.1R cells in logarithmic growth phase was adjusted to a concentration of 5×10⁵ cells/mL, and 100 μL per well was added to a 96-well U-shaped plate, and centrifuged at 300 g for 5 min. The supernatant was discarded. […] The primary antibody was washed away, and 50 μL/well Alexa Fluro647 labeled goat anti-human IgG FC (1:300 dilution) was added, and incubated on ice for 20 min. After washing once, 50 μL/well of PI was added, incubated for 5 min, and detected by flow cytometry.

[5] = biological target: T1, Cynomolgus GPRC5D; assay: flow cytometry, HEK293-cyGPRC5D cells against HEK293-hGPRC5D cells
Description: as §1

[6] = biological target: T3, human GPRC5D; assay: flow cytometry, HEK293-hGPRC5D cells
Description: as §1

[7] = biological target: T2, CD3 receptor on the surface of Jurkat …; assay: flow cytometry, Jurkat cells
Description: The cell concentration was adjusted with 4% calf serum to 5×10⁵ cells/mL. 100 μL per well was added to a 96-well U-shaped plate, and centrifuged at 300 g. The supernatant was removed. […] The secondary antibody 50 μL/well of Alexa Fluro647 labeled goat anti-human IgG Fc (1:300 dilution) was added, and incubated on ice for 20 min. After washing once, 50 μL/well of PI was added, incubated for 5 min, and detected by flow cytometry.

[8] = biological target: T3, human GPRC5D; assay: cell-based or functional assay; remark: listed apart in the source
[9] = biological target: T3, human GPRC5D; assay: flow cytometry, HEK293-hGPRC5D cells; remark: listed apart in the source
Description: Cell suspensions of HEK293-hGPRC5D and HEK293-hBCMA stably transfected cells in logarithmic growth phase were adjusted to 5×10⁵ cells/ml. Then, 100 μl/well of the cell suspension was added to a 96-well U-shaped plate, and centrifuged at 300 g for 5 min. The supernatant was discarded. 100 μL per well of serially diluted antibody was added, and incubated at 4° C. for 60 min. The secondary antibody 50 μL/well of Alexa Fluro647 labeled goat anti-human IgG Fc (1:300 dilution) was added, and incubated on ice for 20 min. After washing once, 50 μL/well of PI solution was added, incubated for 5 min, and detected by flow cytometry.

[10] = biological target: T4, biotinylated CD3 recombinant antigen (CD3εγ) (Homo sapiens (Human), UniProt P07766 23-126; P09693 23-116, Biotinylated; site and chemistry not stated. The letters do not carry the biotin.); assay: BLI, biotinylated antigen on SA probe, antibody as analyte
T4 construct: also called CD3e antigen; copies: 1 + 1

[11] = biological target: T2, CD3 receptor on the surface of Jurkat …; assay: flow cytometry on Jurkat cells
Description: Jurkat cells in logarithmic growth phase were added with 200 μg/mL mouse IgG, and allowed to stand in an ice bath for 30 min. The cells were adjusted with 4% calf serum to 5×10⁵ cells/mL. 100 μL per well was added to a 96-well U-shaped plate, and centrifuged at 300 g. The supernatant was removed. 100 μL per well of serially diluted antibody was added, and incubated at 4° C. for 60 min. The secondary antibody 50 μL/well of Alexa Fluro647 labeled goat anti-human IgG Fc (1:300 dilution) was added, and incubated on ice for 20 min. After washing once, 50 μL/well of PI was added, incubated for 5 min, and detected by flow cytometry.

T2 sequence (P07766 23-207): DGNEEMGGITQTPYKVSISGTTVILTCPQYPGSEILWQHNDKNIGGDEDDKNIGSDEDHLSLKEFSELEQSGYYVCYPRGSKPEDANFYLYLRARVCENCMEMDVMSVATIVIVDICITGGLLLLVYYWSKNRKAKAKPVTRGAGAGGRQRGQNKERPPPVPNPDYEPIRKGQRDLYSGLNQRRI
T3 sequence (Q9NZD1 whole entry): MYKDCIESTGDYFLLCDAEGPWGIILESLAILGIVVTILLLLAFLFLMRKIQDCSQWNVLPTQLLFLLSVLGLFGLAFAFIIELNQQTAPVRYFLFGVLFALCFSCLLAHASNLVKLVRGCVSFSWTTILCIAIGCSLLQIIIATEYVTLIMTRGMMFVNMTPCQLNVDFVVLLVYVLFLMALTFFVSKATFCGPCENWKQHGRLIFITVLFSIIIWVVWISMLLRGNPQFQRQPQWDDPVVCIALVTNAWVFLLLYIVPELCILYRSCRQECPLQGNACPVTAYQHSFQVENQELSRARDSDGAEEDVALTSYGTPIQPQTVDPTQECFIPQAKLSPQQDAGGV
T4 sequence (P07766 23-126 limits assumed, chain 1 of 2): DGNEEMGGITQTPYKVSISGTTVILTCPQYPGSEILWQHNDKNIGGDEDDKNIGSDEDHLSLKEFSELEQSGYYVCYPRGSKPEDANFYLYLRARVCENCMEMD
T4 sequence (P09693 23-116 limits assumed, chain 2 of 2): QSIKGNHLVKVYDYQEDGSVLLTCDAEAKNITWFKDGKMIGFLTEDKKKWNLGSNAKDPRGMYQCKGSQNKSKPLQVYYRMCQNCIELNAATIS

| Binder | TDCC EC50 (nM), HEK293-hGPRC5D [8] | EC50 [9] | Kd [10] | binding result [11] | further results |
| --- | --- | --- | --- | --- | --- |
| B1 |  |  |  |  | EC50 [1]: 6.6 nM; Jurkat-NFAT-luc, EC50 [2]: 0.774 nM; TDCC, EC50 (nM), MM.1R [3]: 0.009 nM; EC50 [4]: 10.2 nM; fold difference of affinity, Cynomolgus GPRC5D against human GPRC5D [5]: < 5 fold; EC50 [6]: 2.3 nM; EC50 [7]: 7.2 nM |
| B2 | 0.278 nM | 2.7 nM | 58.2 nM |  |  |
| B3 | 0.074 nM | 5.7 nM |  | binds |  |
| B4 | 0.045 nM | 7.9 nM |  | binds |  |
| B5 | 0.446 nM | 9.9 nM | 64.4 nM |  |  |
